Results as given in article doi:10.1101/2022.02.25.482027 (bioRxiv, 2022).

Experiments:
Assay in all cases: co-sedimentation
FtsA(S84L) = molecular target: T1, FtsA(S84L) (E. coli, UniProt P0ABH0 1-420, S84L)
T1 sequence: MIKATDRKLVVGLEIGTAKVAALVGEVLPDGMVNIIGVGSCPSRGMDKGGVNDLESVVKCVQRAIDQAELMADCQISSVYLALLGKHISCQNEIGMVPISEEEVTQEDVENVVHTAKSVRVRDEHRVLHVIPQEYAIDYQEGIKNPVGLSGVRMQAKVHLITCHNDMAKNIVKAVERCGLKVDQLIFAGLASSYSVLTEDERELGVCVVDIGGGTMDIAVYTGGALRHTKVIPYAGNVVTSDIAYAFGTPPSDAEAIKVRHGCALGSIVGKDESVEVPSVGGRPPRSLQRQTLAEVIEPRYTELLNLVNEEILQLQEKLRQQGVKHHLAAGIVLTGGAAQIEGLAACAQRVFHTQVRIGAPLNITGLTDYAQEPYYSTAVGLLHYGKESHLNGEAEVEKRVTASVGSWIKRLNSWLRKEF

FtsA(E14R) = molecular target: T2, FtsA(E14R) (E. coli, UniProt P0ABH0 1-420, E14R)
T2 sequence: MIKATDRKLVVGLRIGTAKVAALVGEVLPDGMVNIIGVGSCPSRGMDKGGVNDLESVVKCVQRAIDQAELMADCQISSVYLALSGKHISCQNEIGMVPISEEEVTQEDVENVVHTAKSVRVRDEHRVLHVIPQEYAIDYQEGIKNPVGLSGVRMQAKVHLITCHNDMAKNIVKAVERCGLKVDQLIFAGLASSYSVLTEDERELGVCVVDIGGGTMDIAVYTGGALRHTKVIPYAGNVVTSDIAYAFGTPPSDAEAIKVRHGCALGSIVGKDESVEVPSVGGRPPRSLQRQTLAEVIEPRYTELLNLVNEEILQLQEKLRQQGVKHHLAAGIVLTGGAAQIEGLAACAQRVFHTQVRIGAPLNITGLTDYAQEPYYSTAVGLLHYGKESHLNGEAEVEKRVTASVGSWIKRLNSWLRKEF

FtsA(Y375A) = molecular target: T3, FtsA(Y375A) (E. coli, UniProt P0ABH0 1-420, Y375A)
T3 sequence: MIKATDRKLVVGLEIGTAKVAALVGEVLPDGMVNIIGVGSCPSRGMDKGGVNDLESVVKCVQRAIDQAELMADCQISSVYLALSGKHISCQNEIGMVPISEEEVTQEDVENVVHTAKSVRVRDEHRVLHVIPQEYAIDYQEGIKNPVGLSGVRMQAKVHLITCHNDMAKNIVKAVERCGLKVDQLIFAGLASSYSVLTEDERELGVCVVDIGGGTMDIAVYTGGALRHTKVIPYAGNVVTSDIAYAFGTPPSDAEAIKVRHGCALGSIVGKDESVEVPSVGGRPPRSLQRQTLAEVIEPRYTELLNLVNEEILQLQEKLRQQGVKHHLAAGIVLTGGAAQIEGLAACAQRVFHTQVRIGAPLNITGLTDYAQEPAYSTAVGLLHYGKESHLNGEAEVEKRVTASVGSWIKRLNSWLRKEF

FtsA(A188V) = molecular target: T4, FtsA(A188V) (E. coli, UniProt P0ABH0 1-420, A188V)
T4 sequence: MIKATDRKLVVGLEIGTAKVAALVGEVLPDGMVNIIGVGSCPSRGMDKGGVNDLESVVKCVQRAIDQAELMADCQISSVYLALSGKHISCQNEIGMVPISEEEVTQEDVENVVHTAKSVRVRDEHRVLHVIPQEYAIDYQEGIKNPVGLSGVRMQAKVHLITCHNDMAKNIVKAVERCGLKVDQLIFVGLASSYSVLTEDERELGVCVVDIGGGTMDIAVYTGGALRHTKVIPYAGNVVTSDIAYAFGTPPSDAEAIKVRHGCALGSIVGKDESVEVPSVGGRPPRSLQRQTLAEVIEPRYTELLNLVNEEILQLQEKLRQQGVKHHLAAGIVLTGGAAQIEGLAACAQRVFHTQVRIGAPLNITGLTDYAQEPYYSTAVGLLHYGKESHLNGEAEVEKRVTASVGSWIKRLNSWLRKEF

Measured: binding result

B1: FtsZ (natural protein)
chain: MFEPMELTNDAVIKVIGVGGGGGNAVEHMVRERIEGVEFFAVNTDAQALRKTAVGQTIQIGSGITKGLGAGANPEVGRNAADEDRDALRAALEGADMVFIAAGMGGGTGTGAAPVVAEVAKDLGILTVAVVTKPFNFEGKKRMAFAEQGITELSKHVDSLITIPNDKLLKVLGRGISLLDAFGAANDVLKGAVQGIAELITRPGLMNVDFADVRTVMSEMGYAMMGSGVASGEDRAEEAAEMAISSPLLEDIDLSGARGVLVNITAGFDLRLDEFETVGNTIRAFASDNATVVIGTSLDPDMNDELRVTVVATGIGMDKRPEITLVTNKQVQQPVMDRYQQHGMAPLTQEQKPVAKVVNDNAPQTAKEPDYLDIPAFLRKQAD
binds: FtsA(S84L) | FtsA(E14R) | FtsA(Y375A) | FtsA(A188V)
